From patent US20090162353A1 (MacroGenics, published 2009) come the findings set out here.

For test [1], the target named is T1, vaccinia virus recombinant B5 protein (vaccinia virus, UniProt Q01227 20-275). Nature of the test: ELISA, B5 capture, IgG detect (luminescence) [C].
For test [2], the target named is T1, vaccinia virus recombinant B5 protein. Nature of the test: surface plasmon resonance; format not stated; target taken from the text.

B1: Ch8AH8AL (antibody, V domains shown)
VH: EVQLVESGGGLIKPGGSLRLSCAASGFIFRDYNINWVRQAPGKGLEWLGFIRTRASGRSTEYSASVKGRFTISRDDSKNIAYLHINSLKMEDTAVYYCAKKGDSYYYMDFWGKGTAVTVSS
VL: ELALTQPASVSGSPGQSITISCTGGRSDLGDSNFVSWYQQYPGKAPKLLIYQVNKRPSGVPDRFSASKSANTASLTISGLQTEDEADYFCSSYTTTSTYVFGIGTKVVVLG
On to B1, for which the “EC50 (read off the curve)” value in test [1] was ~0.03 µg/mL. In addition, in test [2], the equilibrium dissociation constant (Kd) was ≤ 0.6 nM, the koff was ≤ 1e-05 s⁻¹ and the kon stood at 20000 M⁻¹ s⁻¹.
